Reference: patent publication US5198419A, “Formulated medicines for enhancing the efficacy of beta-lactam antibiotics in prophylaxis and treatment against infectious disease due to pathogenic bacteria” (Immuno Japan Inc., priority 1989, dated 1993)

What was measured:
[1] = test system: Kleb. pneumoniae ATCC 10031; assay: MIC of apolactoferrin on agar-plate medium; type: cell-based, Klebsiella pneumoniae
From the text: (§1) The minimum inhibitory concentration of apolactoferrin against
(§2) bacteria on the agar-plate medium.

[2] = test system: Kleb. pneumoniae IFO 3512; assay: MIC of apolactoferrin on agar-plate medium; type: cell-based, Klebsiella pneumoniae
From the text: as §1, §2

Kleb. pneumoniae 3K25 = assay: MIC of apolactoferrin on agar-plate medium; type: cell-based, Klebsiella pneumoniae
From the text: as §1, §2

[3] = test system: Staphylococcus aureus 227; assay: MIC of apolactoferrin on agar-plate medium; type: cell-based
From the text: as §1, §2

Escherichia coli No 35 = assay: MIC of apolactoferrin on agar-plate medium; type: cell-based
From the text: as §1, §2

Pr. rettgeri GN624 = assay: MIC of apolactoferrin on agar-plate medium; type: cell-based
From the text: as §1, §2

Salmonella typhi = assay: MIC of apolactoferrin on agar-plate medium; type: cell-based
From the text: as §1, §2

[4] = test system: Micrococcus lutens ATCC 9341; assay: MIC of apolactoferrin on agar-plate medium; type: cell-based
From the text: as §1, §2

[5] = test system: Enterobacter cloacae No 91; assay: MIC of apolactoferrin on agar-plate medium; type: cell-based
From the text: as §1, §2

Escherichia coli C11 = assay: MIC of apolactoferrin on agar-plate medium; type: cell-based
From the text: as §1, §2

[6] = test system: Escherichia coli NIHJ JC-2; assay: MIC of apolactoferrin on agar-plate medium; type: cell-based
From the text: as §1, §2

[7] = test system: Staphylococcus aureus 209p; assay: MIC of apolactoferrin on agar-plate medium; type: cell-based
From the text: as §1, §2

Proteus vulgaris GN76 = assay: MIC of apolactoferrin on agar-plate medium; type: cell-based
From the text: as §1, §2

Serratia marcescens No 2 = assay: MIC of apolactoferrin on agar-plate medium; type: cell-based
From the text: as §1, §2

Pr. inconstans GN 627 = assay: MIC of apolactoferrin on agar-plate medium; type: cell-based
From the text: as §1, §2

Enterobacter feacalis 64 = assay: MIC of apolactoferrin on agar-plate medium; type: cell-based
From the text: as §1, §2

Pr. morganii GN125 = assay: MIC of apolactoferrin on agar-plate medium; type: cell-based
From the text: as §1, §2

[8] = test system: Proteus vulgaris IFO 3851; assay: MIC of apolactoferrin on agar-plate medium; type: cell-based
From the text: as §1, §2

Shigella sonnei = assay: MIC of apolactoferrin on agar-plate medium; type: cell-based
From the text: as §1, §2

[9] = test system: Citrobacter freundii GN 346; assay: MIC of apolactoferrin on agar-plate medium; type: cell-based
From the text: as §1, §2

[10] = test system: Klebsiella pneumoniae GN69; assay: MIC of apolactoferrin on agar-plate medium; type: cell-based
From the text: as §1, §2

Shigella flexineri = assay: MIC of apolactoferrin on agar-plate medium; type: cell-based
From the text: as §1, §2

Pr. morganii IFO 3848 = assay: MIC of apolactoferrin on agar-plate medium; type: cell-based
From the text: as §1, §2

Citrobacter freundii 2 = assay: MIC of apolactoferrin on agar-plate medium; type: cell-based
From the text: as §1, §2

Salmonella paratyphi A = assay: MIC of apolactoferrin on agar-plate medium; type: cell-based
From the text: as §1, §2

Pr. inconstans IFO 12930 = assay: MIC of apolactoferrin on agar-plate medium; type: cell-based
From the text: as §1, §2

Pr. rettgeri IFO 13501 = assay: MIC of apolactoferrin on agar-plate medium; type: cell-based
From the text: as §1, §2

[11] = test system: Pseudomonas aeruginosa E 7; assay: MIC of apolactoferrin on agar-plate medium; type: cell-based
From the text: as §1, §2

[12] = test system: Enterobacter feacalis 95-1; assay: MIC of apolactoferrin on agar-plate medium; type: cell-based
From the text: as §1, §2

Proteus mirabilis 1287 = assay: MIC of apolactoferrin on agar-plate medium; type: cell-based
From the text: as §1, §2

Proteus mirabilis GN79 = assay: MIC of apolactoferrin on agar-plate medium; type: cell-based
From the text: as §1, §2

Salmonella paratyphi B = assay: MIC of apolactoferrin on agar-plate medium; type: cell-based
From the text: as §1, §2

Vibrio cholerae 569B = assay: MIC of apolactoferrin on agar-plate medium; type: cell-based
From the text: as §1, §2

Klebsiella oxytoca 1006 = assay: MIC of apolactoferrin on agar-plate medium; type: cell-based
From the text: as §1, §2

[13] = test system: Serratia marcescens No 78; assay: MIC of apolactoferrin on agar-plate medium; type: cell-based
From the text: as §1, §2

[14] = test system: Staphylococcus aureus Smith; assay: MIC of apolactoferrin on agar-plate medium; type: cell-based
From the text: as §1, §2

[15] = test system: Bacillus subtilis ATCC 6633; assay: MIC of apolactoferrin on agar-plate medium; type: cell-based
From the text: as §1, §2

[16] = test system: St. epidermidis ATCC 13288; assay: MIC of apolactoferrin on agar-plate medium; type: cell-based, Streptococcus epidermidis
From the text: (§3) Therefore, even though the lactoferrins have very weak antibacterial activity in vitro, it is questionable that they exert direct antibacterial activity against bacteria infecting mammals.
as §1, §2

most pathogenic bacteria = assay: Antibacterial activity of apolactoferrin in vitro, most bacteria; type: cell-based; details: most of the bacteria
From the text: as §3, §1, §2

[17] = test system: Ser. marcescens IFO 12648; assay: MIC of apolactoferrin on agar-plate medium; type: cell-based, Serratia marcescens
From the text: as §1, §2

bacteria = details: iron-free lactoferrin; previous studies; cited from earlier work
Pseu. aeruginosa No. 11 = assay: MIC of apolactoferrin on agar-plate medium; type: cell-based, Pseudomonas aeruginosa
From the text: as §1, §2

[18] = test system: Pseu. aeruginosa IFO 3445; assay: MIC of apolactoferrin on agar-plate medium; type: cell-based, Pseudomonas aeruginosa
From the text: as §1, §2

Pseu. aeruginosa TMS 11 = assay: MIC of apolactoferrin on agar-plate medium; type: cell-based, Pseudomonas aeruginosa
From the text: as §1, §2

Pseu. aeruginosa No. 47 = assay: MIC of apolactoferrin on agar-plate medium; type: cell-based, Pseudomonas aeruginosa
From the text: as §1, §2

B1: apolactoferrin: iron-free lactoferrin, from bovine milk (protein, UniProt P24627 20-708, looked up)
Lactotransferrin: APRKNVRWCTISQPEWFKCRRWQWRMKKLGAPSITCVRRAFALECIRAIAEKKADAVTLDGGMVFEAGRDPYKLRPVAAEIYGTKESPQTHYYAVAVVKKGSNFQLDQLQGRKSCHTGLGRSAGWIIPMGILRPYLSWTESLEPLQGAVAKFFSASCVPCIDRQAYPNLCQLCKGEGENQCACSSREPYFGYSGAFKCLQDGAGDVAFVKETTVFENLPEKADRDQYELLCLNNSRAPVDAFKECHLAQVPSHAVVARSVDGKEDLIWKLLSKAQEKFGKNKSRSFQLFGSPPGQRDLLFKDSALGFLRIPSKVDSALYLGSRYLTTLKNLRETAEEVKARYTRVVWCAVGPEEQKKCQQWSQQSGQNVTCATASTTDDCIVLVLKGEADALNLDGGYIYTAGKCGLVPVLAENRKSSKHSSLDCVLRPTEGYLAVAVVKKANEGLTWNSLKDKKSCHTAVDRTAGWNIPMGLIVNQTGSCAFDEFFSQSCAPGADPKSRLCALCAGDDQGLDKCVPNSKEKYYGYTGAFRCLAEDVGDVAFVKNDTVWENTNGESTADWAKNLNREDFRLLCLDGTRKPVTEAQSCHLAVAPNHAVVSRSDRAAHVKQVLLHQQALFGKNGKNCPDKFCLFKSETKNLLFNDNTECLAKLGGRPTYEEYLGTEYVTAIANLKKCSTSPLLEACAFLTR
modifications: iron-free
notes: iron-free lactoferrin, from bovine milk
For B1, the “Minimum Inhibitory Conc.” value [1] was > 6,400 μg/ml, the “Minimum Inhibitory Conc.” value [2] was > 6,400 μg/ml and the “Minimum Inhibitory Conc.” value (Kleb. pneumoniae 3K25) was > 6,400 μg/ml. The “Minimum Inhibitory Conc.” value [3] was > 6,400 μg/ml, the “Minimum Inhibitory Conc.” value (Escherichia coli No 35) was 1,600 μg/ml and the “Minimum Inhibitory Conc.” value (Pr. rettgeri GN624) was 6,400 μg/ml. For the same molecule, the “Minimum Inhibitory Conc.” value (Salmonella typhi) was > 6,400 μg/ml, the “Minimum Inhibitory Conc.” value [4] was > 6,400 μg/ml and the “Minimum Inhibitory Conc.” value [5] was > 6,400 μg/ml. The “Minimum Inhibitory Conc.” value (Escherichia coli C11) was > 6,400 μg/ml, the “Minimum Inhibitory Conc.” value [6] was 3,200 μg/ml and the “Minimum Inhibitory Conc.” value [7] was > 6,400 μg/ml. The “Minimum Inhibitory Conc.” value (Proteus vulgaris GN76) was > 6,400 μg/ml, the “Minimum Inhibitory Conc.” value (Serratia marcescens No 2) was > 6,400 μg/ml and the “Minimum Inhibitory Conc.” value (Pr. inconstans GN 627) was > 6,400 μg/ml. The “Minimum Inhibitory Conc.” value (Enterobacter feacalis 64) was 3,200 μg/ml, the “Minimum Inhibitory Conc.” value (Pr. morganii GN125) was 3,200 μg/ml and the “Minimum Inhibitory Conc.” value [8] was > 6,400 μg/ml. For the same molecule, the “Minimum Inhibitory Conc.” value (Shigella sonnei) was > 6,400 μg/ml, the “Minimum Inhibitory Conc.” value [9] was > 6,400 μg/ml and the “Minimum Inhibitory Conc.” value [10] was > 6,400 μg/ml. For the same molecule, the “Minimum Inhibitory Conc.” value (Shigella flexineri) was > 6,400 μg/ml, the “Minimum Inhibitory Conc.” value (Pr. morganii IFO 3848) was > 6,400 μg/ml and the “Minimum Inhibitory Conc.” value (Citrobacter freundii 2) was > 6,400 μg/ml. For the same molecule, the “Minimum Inhibitory Conc.” value (Salmonella paratyphi A) was > 6,400 μg/ml, the “Minimum Inhibitory Conc.” value (Pr. inconstans IFO 12930) was > 6,400 μg/ml and the “Minimum Inhibitory Conc.” value (Pr. rettgeri IFO 13501) was 3,200 μg/ml. For the same molecule, the “Minimum Inhibitory Conc.” value [11] was > 6,400 μg/ml, the “Minimum Inhibitory Conc.” value [12] was 3,200 μg/ml and the “Minimum Inhibitory Conc.” value (Proteus mirabilis 1287) was 3,200 μg/ml. For the same molecule, the “Minimum Inhibitory Conc.” value (Proteus mirabilis GN79) was > 6,400 μg/ml, the “Minimum Inhibitory Conc.” value (Salmonella paratyphi B) was > 6,400 μg/ml and the “Minimum Inhibitory Conc.” value (Vibrio cholerae 569B) was 3,200 μg/ml. The “Minimum Inhibitory Conc.” value (Klebsiella oxytoca 1006) was > 6,400 μg/ml, the “Minimum Inhibitory Conc.” value [13] was > 6,400 μg/ml and the “Minimum Inhibitory Conc.” value [14] was > 6,400 μg/ml. For the same molecule, the “Minimum Inhibitory Conc.” value [15] was 3,200 μg/ml, the “Minimum Inhibitory Conc.” value [16] was 800 µg/mL and the minimum inhibitory concentrations (most pathogenic bacteria) was “more than 6,400 μg/ml”. The “Minimum Inhibitory Conc.” value [17] was > 6,400 μg/ml, the “antibacterial activity by degree of iron saturation” value (bacteria) was “the most potent” and the “Minimum Inhibitory Conc.” value (Pseu. aeruginosa No. 11) was > 6,400 μg/ml. For the same molecule, the “Minimum Inhibitory Conc.” value [18] was > 6,400 μg/ml, the “Minimum Inhibitory Conc.” value (Pseu. aeruginosa TMS 11) was > 6,400 μg/ml and the “Minimum Inhibitory Conc.” value (Pseu. aeruginosa No. 47) was > 6,400 μg/ml.
